Experimental findings from publication PMC3984498 are described below.

The target in this assay is V[2]-TRF2ΔBΔM. The assay is described as follows: split reporter.

“Venus fragment-tagged Ku70 (V[1]-Ku70 / V[2]-Ku70) (from UniProt P12956 1-609) (natural protein)” returned a PCA fluorescence lower than with wild-type TRF2 of 45%.
